Test results as given in patent publication US20050260212A1 (PDL BIOPHARMA, published 2005).

Molecular target: T1, human LFL2-Fc fusion protein (human, UniProt P01857-1 99-330 = IgG part, limits assumed)
T1 construct: domain: constant region of the human gamma 1 immunoglobulin heavy chain; In-frame fusion of the LFL2 extracellular domain with the human gamma 1 constant region; GenBank NP-570843.1 is printed for LFL2/LRRC15
Assay: SPR (BIAcore 3000), mAb immobilised on CM5, LFL2-Fc analyte, bivalent analyte model
Description: Kinetics measurements between human LFL2-Fc fusion protein and anti-LFL2 mAbs were performed using BIAcore 3000™ (BIAcore™, Sweden). Anti-LFL2 mAbs were immobilized with 100 RUs on Research-grade CM5 sensor chip by the BIAcore amine coupling reagents (N-ethyl-N′-dimethylaminopropylcarbodiimide, EDC; N-hydroxysuccinimide, NHS; and ethanolamine HCl, pH8.5). Assays were run at a flow rate of 30 ul/min at room temperature. Three-minute association phase of each LFL2-Fc was followed by ten-minute injection of running buffer (10 mM Hepes, 300 mM sodium chloride, 3 mM EDTA, 0.05% P-20, pH7.4) to monitor dissociation. The mAb surface was regenerated with 25 mM NaOH. […] Double referencing was applied in each analysis to eliminate background responses from reference surface and buffer only control. The affinity (KD) of binding was obtained by simultaneously fitting the association and dissociation phases of the sensorgram from the analyte concentration series using the bivalent analyte model from BIAevaluate software.

T1 sequence (P01857 other isoform, or with tags, fused parts or gaps limits assumed): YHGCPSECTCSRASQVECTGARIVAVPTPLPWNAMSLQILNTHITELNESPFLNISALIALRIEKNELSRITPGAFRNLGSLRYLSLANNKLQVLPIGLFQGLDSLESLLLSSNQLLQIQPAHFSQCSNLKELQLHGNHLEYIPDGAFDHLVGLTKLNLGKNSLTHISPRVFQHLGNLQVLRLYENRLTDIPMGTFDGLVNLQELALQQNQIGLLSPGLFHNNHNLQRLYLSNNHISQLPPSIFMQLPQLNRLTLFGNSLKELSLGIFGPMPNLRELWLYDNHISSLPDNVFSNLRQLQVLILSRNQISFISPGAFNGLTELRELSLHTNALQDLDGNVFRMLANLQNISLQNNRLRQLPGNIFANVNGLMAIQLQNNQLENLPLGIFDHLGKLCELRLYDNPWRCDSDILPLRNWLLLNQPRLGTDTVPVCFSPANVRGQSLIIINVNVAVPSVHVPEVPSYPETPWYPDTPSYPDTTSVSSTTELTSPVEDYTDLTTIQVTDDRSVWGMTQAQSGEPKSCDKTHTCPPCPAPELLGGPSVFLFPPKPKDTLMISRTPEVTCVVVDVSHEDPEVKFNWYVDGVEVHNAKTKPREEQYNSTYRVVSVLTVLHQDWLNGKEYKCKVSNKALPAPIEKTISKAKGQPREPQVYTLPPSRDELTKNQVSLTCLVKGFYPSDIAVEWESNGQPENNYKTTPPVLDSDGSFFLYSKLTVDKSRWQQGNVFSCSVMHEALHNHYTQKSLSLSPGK

Kd: 1.2 nM
B1: anti-LFL2 mAb M25 (antibody, V domains shown)
VH: QVQLQQSGAELMKPGASVKISCKATGYKFSSYWIEWVKQRPGHGLEWIGEILPGSDTTNYNEKFKDKATFTSDTSSNTAYMQLSSLTSEDSAVYYCARDRGNYRAWFGYWGQGTLVTVS
VL: DIQMTQTSSLSASLGDRVTISCRASQDISNYLNWYQQKPDGTVKFLIYYTSRLHSGVPSRFSGSGSGTDYSLTISYLEPEDIATYFCQQGEALPWTFGGGTKLEIKR
